{
  "source": "paper PMC2807033",
  "about": "“Rep Provides a Second Motor at the Replisome to Promote Duplication of Protein-Bound DNA” (Molecular Cell, 2009)",
  "binders": {"B1": {"name": "C33^Rep peptide (synthetic peptide corresponding to the C-terminal 33 residues of Rep) (peptide, UniProt P09980 641-673, looked up)", "peptide": "Biotin-EQERKVVSAEERMQKGQSHLANLKAMMAAKRGK", "notes": "C-terminal 33 residues of Rep helicase, E. coli; also called the Rep C terminus; source: synthetic peptide; not shown: biotin tag, N-terminal, kept"}},
  "molecular_target": "T1, E. coli replicative helicase DnaB, purified (E. coli, UniProt P0ACB0 1-471)",
  "T1 construct": "replicative helicase DnaB, E. coli; Construct and purification are in the Supplemental Experimental Procedures; also called E. coli DnaB",
  "T1 sequence (P0ACB0 whole entry)": "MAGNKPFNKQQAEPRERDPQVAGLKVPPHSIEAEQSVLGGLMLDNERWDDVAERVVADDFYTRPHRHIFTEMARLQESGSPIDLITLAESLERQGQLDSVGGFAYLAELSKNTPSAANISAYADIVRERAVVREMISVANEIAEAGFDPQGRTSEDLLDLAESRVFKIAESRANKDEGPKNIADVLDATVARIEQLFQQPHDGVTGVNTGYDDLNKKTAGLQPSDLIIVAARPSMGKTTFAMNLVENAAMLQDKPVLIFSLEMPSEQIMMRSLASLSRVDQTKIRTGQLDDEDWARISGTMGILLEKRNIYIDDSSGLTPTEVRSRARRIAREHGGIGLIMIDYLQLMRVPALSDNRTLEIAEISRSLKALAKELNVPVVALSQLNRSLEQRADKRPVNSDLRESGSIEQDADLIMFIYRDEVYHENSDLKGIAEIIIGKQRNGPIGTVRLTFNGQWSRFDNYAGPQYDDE",
  "assay": "not stated; apparent KD (equilibrium dissociation constant), Figure S5; the method is not told in the text shown (SPR is the only quantitative binding method that the paper names)",
  "conditions": "both partners purified",
  "note": "No end group written: not given here. *: point of attachment. Biotin = O=C1N[C@H]2[C@H](CS[C@H]2CCCCC(=O)*)N1",
  "data": [
    {"binder": "B1", "values": [
      {"measurement": "Kd", "result": "< 100", "unit": "nM"}
    ]}
  ]
}
